Measured values reported in PMC7325957.

Biological target: NttE from L. pneumophila strain 130b, His6-tagged (residues 1 to 269; minus its N-terminal signal sequence) (Legionella pneumophila strain 130b)
Experiment: SEC-SAXS

Question: With “NttE from L. pneumophila strain 130b, His6-tagged (residues 1 to 269; minus its N-terminal signal sequence) (natural protein)” as the substance, how does the stoichiometry N read?
Answer: Its stoichiometry N is 2.
